The text below walks through data of patent WO2016002189A1 (dated 2016).

The target of experiment [1] is T1, proglucagon (Homo sapiens (Human), UniProt P01275 21-180).
T1 construct: Native protein in culture supernatants or HPLC fractions of human duodenal cancer cell lines, not purified recombinant protein; also called proglucagon protein
As to the kind of experiment: epitope assay (chemiluminescent immunoassay).

Experiment [2] addresses T2, human GLP-1 (manufactured by Yanaihara Laboratories) (human, UniProt P01275 98-127, limits assumed).
T2 construct: also called glucagon-like peptide-1
T2 peptide (looked up): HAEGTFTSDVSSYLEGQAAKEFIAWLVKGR
As to the kind of experiment: competitive ELISA with biotinylated proglucagon (111-144) as labelled antigen.

Experiment [3] has as its target T3, human glucagon (manufactured by Yanaihara Laboratories) (human, UniProt P01275 53-81).
T3 construct: Glucagon is only the 29-residue hormone cut from it
The experiment is described as above.

For experiment [4], the target named is T4, human GLP-2 (manufactured by Yanaihara Laboratories) (human, UniProt P01275 146-178).
T4 construct: also called glucagon-like peptide-2
T4 peptide (looked up): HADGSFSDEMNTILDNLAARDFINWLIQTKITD
The experiment is described as above.

The target of experiment [5] is T5, peptide consisting of amino acid residues 111 to 144 of proglucagon.
T5 construct: Synthetic peptide; also called proglucagon (111-144); proglucagon 111-144 antigen
T5 peptide: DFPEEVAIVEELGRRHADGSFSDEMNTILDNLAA
Kind of experiment: ELISA screening of hybridomas against the proglucagon peptides.

T3 sequence (P01275 53-81): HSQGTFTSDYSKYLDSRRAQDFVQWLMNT
T1 sequence (P01275 21-180): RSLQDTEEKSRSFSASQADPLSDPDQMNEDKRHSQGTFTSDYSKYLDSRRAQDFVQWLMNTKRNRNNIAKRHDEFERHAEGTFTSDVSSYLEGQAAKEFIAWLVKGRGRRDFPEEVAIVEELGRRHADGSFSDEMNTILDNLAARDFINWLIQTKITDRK

B1: SCC-MGD-913Ab (antibody, V domains shown)
VH: DVKLVESGGGLVKPGGSLKLSCAASGFTFSSFAMTWVRQTPEKRLEWVATISNGGSYTYYPDSVKGRFTISRDNAKNTLYLQMSSLRSEDTAMYYCTRDGAGKGFPLDYWGQGTTLTVSS
VL: NILLTQSPSSLAVSAGEKVTMSCKSSQSVFYSSNQKNYLAWYQQKPGQSPKLLIYWASTRESGVPDRFTGSGSGTDFTLTISSVQAEDLAIYYCHQYFSSLTFGAGTKLELK
notes: Mouse hybridoma monoclonal from immunisation with the proglucagon 111-144 peptide
As to B1, the binding result is listed as “binds” in experiment [1]; “no binding” in experiment [2]; “no binding” in experiment [3]; “no binding” in experiment [4]; “binds” in experiment [5].
